Assay [1] deals with PspCN-anchored FH (on the HJEM6 SPR chip) (human | Streptococcus pneumoniae) (UniProt P08603). Briefly: SPR; homemade HJEM6 chip, FH (54 RU) captured by clicked sumo-Cys-PspCN-azide (18 RU); C3b flowed (1 μM to 3.9 nM); 1:1 steady-state model. (In general: SPR reads the build-up and loss of mass on a sensor chip optically.)
Assay [2] deals with C3b (human) (UniProt P01024). Description: SPR; homemade HJEM7 chip, 143 RU C3b amine-coupled and 174 RU 3′-sialyllactose clicked on; FH (2 μM to 3.9 nM) or FH 19–20 (10 μM to 3.9 nM) flowed; Biacore T200, 25 °C, HBS-P pH 7.4; 1:1 steady-state model.
Assay [3] concerns the target C3b (human) (UniProt P01024). Description: SPR; homemade HJEM7 chip (50% OH, 25% COOH, 25% propargyl), 144 RU C3b amine-coupled; FH (2 μM to 3.9 nM) or FH 19–20 (10 μM to 3.9 nM) flowed; Biacore T200, 25 °C, HBS-P pH 7.4; 1:1 steady-state model.
Assay [4] deals with C3b (human) (UniProt P01024). Briefly: AFM force-distance measurements; Cys-PspCN thiol-coupled to the SAM on the AFM probe tip, alone or with FH anchored to it; partner amine-coupled to the SAM on a gold wafer; PBS, laboratory at 22 °C; single (type 3) detachment events.
For assay [5], the target named is C3b (human) (UniProt P01024). Description: SPR; C1 chip with immobilised C3b; cycles of a mixture of FB and FD, then C3, injected at 10 μl/min; Biacore T200, 25 °C, HBS-P pH 7.4 with 1 mM MgCl2.

Regarding “C3b (from UniProt P01024 23-667; P01024 749-1663) (natural protein)”, in assay [1], the Kd (commonly a measure of binding affinity in units of concentration) was 70 nM. FH 19–20 (domain or fragment): the dissociation constant Kd in the assay with C3b (human) [2] turned out to be 2600 nM; in the assay with C3b (human) [3], 350 nM. On to “PspCN-anchored FH (on the AFM probe tip) (from UniProt P08603 19-1231) (complex)”, for which, in the assay with C3b (human) [4], the detachment force of single events was in the range of 0.1 to 0.26 nN and the mean detachment force was 0.17 nN. With factor B (natural protein), the percent of C3b molecules binding FB with C3b (human) [5] was < 80%.

These data come from article PMC6937562.
